From patent US20240116985A1, “STAPLED PEPTIDES AND METHODS THEREOF” (priority 2020, published 2024)
Starred links: 1 amine or outer side, 2 acyl side, 3 side chain; linkers in the order of their positions; H or OH if unused. Positions of bridges follow the written chain, without caps; N, C: chain ends. Non-standard residues stand in square brackets, D forms with d. Primed or numbered codes have the meaning given here. PyrS2″ = (S)-3-amino-1-((pent-4-en-1-yloxy)carbonyl)pyrrolidine-3-carboxylic acid (stapling residue), C=CCCCOC(=O)N1CC[C@@](N[*:1])(C(=O)[*:2])C1; B5(24) = 2-amino-2-(pent-4-en-1-yl)hept-6-enoic acid, 2,2-bis(4-pentenyl)glycine (stitching residue), C=CCCCC(CCCC=C)(N[*:1])C(=O)[*:2]; B5(4) = 2,2-bis(4-pentenyl)glycine = 2-amino-2-(pent-4-en-1-yl)hept-6-enoic acid (stitching residue), C=CCCCC(CCCC=C)(N[*:1])C(=O)[*:2]; B5(5) = 2,2-bis(4-pentenyl)glycine, 2-amino-2-(pent-4-en-1-yl)hept-6-enoic acid (stitching residue), C=CCCCC(CCCC=C)(N[*:1])C(=O)[*:2]; B5(8) = 2,2-bis(4-pentenyl)glycine (2-amino-2-(pent-4-en-1-yl)hept-6-enoic acid, stitching residue), C=CCCCC(CCCC=C)(N[*:1])C(=O)[*:2]; TfeGA = (S)-2-amino-3-((carboxymethyl)(2,2,2-trifluoroethyl)amino)propanoic acid, O=C([C@H](CN(CC(=O)[*:3])CC(F)(F)F)N[*:1])[*:2]; PyrS2 = (S)-3-amino-1-((pent-4-en-1-yloxy)carbonyl)pyrrolidine-3-carboxylic acid, C=CCCCOC(=O)N1CC[C@@](N[*:1])(C(=O)[*:2])C1; B5(12) = 2-amino-2-(pent-4-en-1-yl)hept-6-enoic acid (two olefin side chains), C=CCCCC(CCCC=C)(N[*:1])C(=O)[*:2]; B5 = 2-amino-2-(pent-4-en-1-yl)hept-6-enoic acid, C=CCCCC(CCCC=C)(N[*:1])C(=O)[*:2]; Phe(3-COOH) = N[C@@H](Cc1cccc(C(=O)O)c1)C(=O)O; Phe(2-Cl) = N[C@@H](Cc1ccccc1Cl)C(=O)O; Bta = N[C@@H](Cc1csc2ccccc12)C(=O)O; αAllylPro = C=CC[C@@]1(C(=O)O)CCCN1; tBuAla = CC(C)(C)C[C@H](N)C(=O)O; 3Thi = N[C@@H](Cc1ccsc1)C(=O)O; Cha = N[C@@H](CC1CCCCC1)C(=O)O; Cit = NC(=O)NCCC[C@H](N)C(=O)O; S8 = C=CCCCCCC[C@](C)(N)C(=O)O; hLeu = CC(C)CC[C@H](N)C(=O)O; hSer = N[C@@H](CCO)C(=O)O; Abu = CC[C@H](N)C(=O)O

Experiments:
[1] = biological target: full-length beta-Catenin (Uniprot ID P35222) (Homo sapiens (Human)) (UniProt P35222); test: FP competition; full-length beta-catenin + 5FAM-TCF4(10-53) probe
Target sequence in this assay (P35222 whole entry, the tested form may be a part): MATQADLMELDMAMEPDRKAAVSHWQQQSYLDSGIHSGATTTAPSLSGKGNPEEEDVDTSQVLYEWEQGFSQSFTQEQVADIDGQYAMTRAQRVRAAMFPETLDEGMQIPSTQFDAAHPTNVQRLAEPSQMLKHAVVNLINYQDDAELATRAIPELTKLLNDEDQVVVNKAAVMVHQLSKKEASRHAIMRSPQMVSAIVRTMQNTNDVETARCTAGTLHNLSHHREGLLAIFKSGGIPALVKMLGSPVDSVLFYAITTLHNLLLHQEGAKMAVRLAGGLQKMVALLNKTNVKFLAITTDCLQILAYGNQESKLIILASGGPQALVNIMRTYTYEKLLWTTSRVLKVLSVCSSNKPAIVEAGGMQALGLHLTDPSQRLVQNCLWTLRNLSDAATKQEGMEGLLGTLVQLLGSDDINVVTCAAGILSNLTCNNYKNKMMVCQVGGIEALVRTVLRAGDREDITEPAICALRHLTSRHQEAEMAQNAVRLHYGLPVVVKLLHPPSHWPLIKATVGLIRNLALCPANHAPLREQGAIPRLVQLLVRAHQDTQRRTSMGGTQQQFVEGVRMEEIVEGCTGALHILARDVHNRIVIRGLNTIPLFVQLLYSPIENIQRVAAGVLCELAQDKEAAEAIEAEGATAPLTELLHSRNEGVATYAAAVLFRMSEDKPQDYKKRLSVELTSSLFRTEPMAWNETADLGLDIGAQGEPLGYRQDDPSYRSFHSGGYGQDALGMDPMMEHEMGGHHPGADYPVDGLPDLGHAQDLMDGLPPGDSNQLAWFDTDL

[2] = biological target: full-length beta-Catenin (Uniprot ID P35222) (Homo sapiens (Human)) (UniProt P35222); test: fluorescence polarization competition, 5FAM-TCF4 10-53 probe on full-length beta-catenin
Target sequence in this assay (P35222 2-781 limits assumed): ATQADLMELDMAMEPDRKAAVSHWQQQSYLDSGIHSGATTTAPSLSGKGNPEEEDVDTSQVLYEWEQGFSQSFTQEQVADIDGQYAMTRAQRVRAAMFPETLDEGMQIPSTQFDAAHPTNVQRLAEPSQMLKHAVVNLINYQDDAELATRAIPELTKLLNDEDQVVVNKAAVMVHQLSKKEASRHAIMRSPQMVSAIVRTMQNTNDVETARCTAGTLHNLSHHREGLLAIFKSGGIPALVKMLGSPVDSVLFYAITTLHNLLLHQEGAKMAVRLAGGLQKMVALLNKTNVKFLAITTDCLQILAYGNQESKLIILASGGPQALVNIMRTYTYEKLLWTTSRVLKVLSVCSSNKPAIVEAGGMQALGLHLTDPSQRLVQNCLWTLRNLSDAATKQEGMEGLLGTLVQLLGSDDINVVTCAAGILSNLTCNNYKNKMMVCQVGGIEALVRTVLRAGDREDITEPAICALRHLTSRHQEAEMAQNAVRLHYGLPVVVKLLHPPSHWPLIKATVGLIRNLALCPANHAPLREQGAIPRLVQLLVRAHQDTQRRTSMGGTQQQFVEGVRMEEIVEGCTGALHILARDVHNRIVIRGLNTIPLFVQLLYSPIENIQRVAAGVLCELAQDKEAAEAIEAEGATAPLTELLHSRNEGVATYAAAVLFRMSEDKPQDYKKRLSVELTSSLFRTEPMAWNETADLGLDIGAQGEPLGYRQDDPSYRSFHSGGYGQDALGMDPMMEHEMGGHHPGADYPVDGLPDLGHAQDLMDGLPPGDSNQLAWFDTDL

[3] = biological target: Bcat-Halo (UniProt P35222); test: NanoBRET Abs IC50 in HEK293 cells; competitor TCF4-Luc on Bcat-Halo
[4] = biological target: full-length beta-Catenin (Uniprot ID P35222) (Homo sapiens (Human)) (UniProt P35222); test: fluorescence polarization competition vs 5FAM-TCF4(10-53) on full-length beta-catenin
Target sequence in this assay (P35222 2-781 limits assumed): as above

[5] = biological target: full-length beta-Catenin (Uniprot ID P35222) (Homo sapiens (Human)) (UniProt P35222); test: competition fluorescence polarization; full-length beta-catenin, 5FAM-TCF4(10-53) probe as competitor
Target sequence in this assay (P35222 whole entry, the tested form may be a part): as the sequence (P35222 whole entry, the tested form may be a part) above

[6] = biological target: full-length beta-Catenin (Uniprot ID P35222) (Homo sapiens (Human)) (UniProt P35222); test: fluorescence polarization competition; displacement of 5FAM-TCF4(10-53) from full-length beta-catenin
Target sequence in this assay (P35222 whole entry, the tested form may be a part): as above

[7] = biological target: full-length beta-Catenin (Uniprot ID P35222) (Homo sapiens (Human)) (UniProt P35222); test: fluorescence polarization competition; full-length beta-catenin + 5FAM-TCF4(10-53) probe; peptide titrated
Target sequence in this assay (P35222 2-781 limits assumed): as the sequence (P35222 2-781 limits assumed) above

[8] = biological target: full-length beta-Catenin (Uniprot ID P35222) (Homo sapiens (Human)) (UniProt P35222); test: fluorescence polarization competition; full-length beta-catenin; competitor displaced: 5FAM-TCF4 10-53
Target sequence in this assay (P35222 2-781 limits assumed): as above

[9] = biological target: Bcat-Halo (UniProt P35222); test: NanoBRET in HEK293 cells (Bcat-Halo / TCF4-Luc), absolute IC50; competitor: TCF4-Luc
[10] = biological target: full-length beta-Catenin (Uniprot ID P35222) (Homo sapiens (Human)) (UniProt P35222); test: fluorescence polarization competition; full-length beta-catenin, competitor 5FAM-TCF4(10-53) probe
Target sequence in this assay (P35222 whole entry, the tested form may be a part): as the sequence (P35222 whole entry, the tested form may be a part) above

[11] = biological target: full-length beta-Catenin (Uniprot ID P35222) (Homo sapiens (Human)) (UniProt P35222); test: fluorescence polarization competition; 10 nM full-length beta-catenin with 10 nM 5FAM-TCF4 (residues 10-53) probe as competitor
Target sequence in this assay (P35222 2-781 limits assumed): as the sequence (P35222 2-781 limits assumed) above

[12] = biological target: full-length beta-Catenin (Uniprot ID P35222) (Homo sapiens (Human)) (UniProt P35222); test: FP competition vs 5FAM-TCF4(10-53), full-length beta-catenin
Target sequence in this assay (P35222 2-781 limits assumed): as above

[13] = biological target: full-length beta-Catenin (Uniprot ID P35222) (Homo sapiens (Human)) (UniProt P35222); test: fluorescence polarization competition; 10 nM full-length beta-catenin + 10 nM 5FAM-TCF4(10-53) as competitor probe; peptide titrated

Chain of Bcat-Halo (P35222 whole entry): as the sequence (P35222 whole entry, the tested form may be a part) above

| Binder | EC50 [2] | IC50 [3] | IC50 [4] | IC50 [8] | IC50 [9] | also measured |
| --- | --- | --- | --- | --- | --- | --- |
| Ac-[αAllylPro]D[tBuAla][B5(5)]D[Phe(3-COOH)]AAFA[PyrS2″][Phe(2-Cl)][Bta]F-NH2 (staple 1-4, 4-11) [I-2025] | – | – | – | – | – | IC50 [1]: 109 nM |
| Ac-[αAllylPro]D[Abu][B5(4)]DEAAFQ[S8]F[Bta]Q-NH2 (staple 1-4, 4-11) [I-569] | – | – | – | – | – | IC50 [5]: 42 nM; EC50 [6]: 42 nM |
| Ac-[αAllylPro]D[Abu][B5(4)]DEAAFQ[S8]F[Bta]H-NH2 (staple 1-4, 4-11) [I-570] | – | – | – | – | – | IC50 [5]: 56 nM; EC50 [6]: 56 nM |
| Ac-[αAllylPro]D[tBuAla][B5(4)]DEAAFN[PyrS2″]F[Bta]Q-NH2 (staple 1-4, 4-11; not fully specified) [I-684] | – | – | – | 15 nM | 14300 nM | EC50 [7]: 15 nM |
| Ac-[αAllylPro]D[tBuAla][B5(4)]NTAAYN[PyrS2″][3Thi][Bta]Q-NH2 (staple 1-4, 4-11; not fully specified; printed as Ac-PL3-Asp-Npg-B5-Asn-Thr-Ala-Ala-Tyr-Asn-PyrS2-3Thi-BztA-Gln-NH2) [I-2015] | – | – | – | – | – | IC50 [1]: 522 nM |
| Ac-[αAllylPro]D[Abu][B5]DDAAFN[S8]F[Bta]H-NH2 (staple 1-4, 4-11) [I-575] | – | – | – | – | – | IC50 [5]: 21 nM; EC50 [10]: 21 nM |
| Ac-[αAllylPro]D[tBuAla][B5(4)]DEAAFN[PyrS2″]F[Bta]Q-NH2 (staple 1-4, 4-11; not fully specified) [I-685] | – | – | – | 25 nM | 19400 nM | EC50 [7]: 25 nM |
| Ac-[αAllylPro]D[tBuAla][B5(12)]DTAAFN[PyrS2][3Thi][Bta]-NH2 (staple 1-4, 4-11; also: later eluting HPLC peak (staple isomer)) [I-860] | – | – | – | – | – | EC50 [11]: 61 nM; IC50 [12]: 61 nM |
| Ac-[αAllylPro]D[tBuAla][B5(5)]D[TfeGA]AAFL[PyrS2″][3Thi][Bta]L-NH2 (staple 1-4, 4-11) [I-1747] | – | – | – | – | – | IC50 [13]: 187 nM |
| Ac-[αAllylPro]D[tBuAla][B5(12)]D[Cit]AAFN[PyrS2][3Thi][Bta]-NH2 (staple 1-4, 4-11) [I-861] | – | – | – | – | – | EC50 [11]: 40 nM; IC50 [12]: 40 nM |
| Ac-[αAllylPro]D[tBuAla][B5(4)]DEAAFN[PyrS2″][3Thi][Bta]Q-NH2 (staple 1-4, 4-11; not fully specified) [I-690] | – | – | – | 7 nM | 17800 nM | EC50 [7]: 7 nM |
| Ac-[αAllylPro]D[tBuAla][B5(4)]DEAAFN[PyrS2″][3Thi][Bta]Q-NH2 (staple 1-4, 4-11; not fully specified) [I-691] | – | – | – | 9 nM | 17000 nM | EC50 [7]: 9 nM |
| Ac-[αAllylPro]D[hLeu][B5(5)]DDAAFN[S8]F[Bta]H-NH2 (staple 1-4, 4-11; also: staple isomer, earlier eluting HPLC peak) [I-583] | – | – | – | – | – | IC50 [5]: 69 nM; EC50 [10]: 69 nM |
| Ac-[αAllylPro]D[tBuAla][B5(4)]DEAAFN[S8][3Thi][Bta]Q-NH2 (staple 1-4, 4-11; not fully specified) [I-683] | – | – | – | 19 nM | 6700 nM | – |
| Ac-[αAllylPro]D[tBuAla][B5(4)]DEAAFN[PyrS2″]F[Bta]H-NH2 (staple 1-4, 4-11; not fully specified) [I-693] | – | – | – | 12 nM | 28500 nM | EC50 [7]: 12 nM |
| Ac-[αAllylPro]D[tBuAla][B5(4)]NTAAYN[PyrS2″][3Thi][Bta]Q-NH2 (staple 1-4, 4-11; not fully specified; printed as Ac-PL3-Asp-Npg-B5-Asn-Thr-Ala-Ala-Tyr-Asn-PyrS2-3Thi-BztA-Gln-NH2) [I-2016] | – | – | – | – | – | IC50 [1]: 703 nM |
| Ac-[αAllylPro]D[Abu][B5(4)]DEAAFQ[S8]F[Bta]Q-NH2 (staple 1-4, 4-11) [I-568] | – | – | – | – | – | IC50 [5]: 73 nM; EC50 [6]: 73 nM |
| Ac-[αAllylPro]D[hLeu][B5(5)]DDAAFN[S8]F[Bta]H-NH2 (staple 1-4, 4-11) [I-584] | – | – | – | – | – | IC50 [5]: 33 nM; EC50 [10]: 33 nM |
| Ac-[αAllylPro]D[tBuAla][B5(4)]DEAAFN[PyrS2″]F[Bta]H-NH2 (staple 1-4, 4-11; not fully specified) [I-692] | – | – | – | 9 nM | 25600 nM | EC50 [7]: 9 nM |

Now from value to binder, other results behind:

| EC50 [2] | IC50 [3] | IC50 [4] | IC50 [8] | IC50 [9] | Binder | also measured |
| --- | --- | --- | --- | --- | --- | --- |
| 65 nM | 14200 nM | 65 nM | – | – | Ac-[αAllylPro]D[Cha][B5(4)]DDLLFT[PyrS2″][Phe(2-Cl)][Bta]S-NH2 (staple 1-4, 4-11) [I-1152] | – |
| 50 nM | 21500 nM | 50 nM | – | – | Ac-[αAllylPro]D[Cha][B5(4)]DDALFS[PyrS2″][Phe(2-Cl)][Bta]Q-NH2 (staple 1-4, 4-11) [I-1148] | – |
| 18 nM | 19800 nM | 18 nM | – | – | Ac-[αAllylPro]D[Cha][B5(4)]DDAAFS[PyrS2″][Phe(2-Cl)][Bta]L-NH2 (staple 1-4, 4-11) [I-1138] | – |
| 12 nM | 21400 nM | 12 nM | – | – | Ac-[αAllylPro]D[Cha][B5(4)]DDLAFT[PyrS2″][Phe(2-Cl)][Bta]S-NH2 (staple 1-4, 4-11) [I-1150] | – |
| – | – | – | 5 nM | 14700 nM | Ac-[αAllylPro]D[tBuAla][B5(8)]DEAAFN[PyrS2″][3Thi][Bta]H-NH2 (staple 1-4, 4-11) [I-697] | EC50 [7]: 5 nM |
| 8 nM | 12000 nM | 8 nM | – | – | Ac-[αAllylPro]D[Cha][B5(4)]DDAAFS[PyrS2″][Phe(2-Cl)][Bta][hSer]-NH2 (staple 1-4, 4-11) [I-1137] | – |
| 22 nM | 18000 nM | 22 nM | – | – | Ac-[αAllylPro]D[Cha][B5(4)]DDAAFL[PyrS2″][Phe(2-Cl)][Bta]T-NH2 (staple 1-4, 4-11) [I-1139] | – |
| 30 nM | 25300 nM | 30 nM | – | – | Ac-[αAllylPro]D[Cha][B5(4)]DDALFT[PyrS2″][Phe(2-Cl)][Bta]S-NH2 (staple 1-4, 4-11) [I-1151] | – |
| – | – | – | 34 nM | 18100 nM | Ac-[αAllylPro]DI[B5(8)]D[TfeGA]AAFN[S8][3Thi][Bta]Q-NH2 (staple 1-4, 4-11) [I-701] | EC50 [7]: 34 nM |
| 10 nM | 21100 nM | 10 nM | – | – | Ac-[αAllylPro]D[Cha][B5(4)]DDLAFS[PyrS2″][Phe(2-Cl)][Bta]Q-NH2 (staple 1-4, 4-11) [I-1147] | – |
| 33 nM | 32500 nM | 33 nM | – | – | Ac-[αAllylPro]D[Cha][B5(4)]DDAAFL[PyrS2″][Phe(2-Cl)][Bta][dT]-NH2 (staple 1-4, 4-11) [I-1140] | – |
